Results taken from patent publication US4331762A, “Bacillus stearothermophilus strain UK 788 and process for producing a useful enzyme” (Unitika Ltd., priority 1980, dated 1982).

Experiments:
Test in all cases: purified protein, by the assay type
[1] = substrate: O=P(O)(O)OC[C@H]1OC(O)[C@H](O)[C@@H](O)[C@@H]1O; details: other: substrate glucose-6-phosphate; pH 8.9
[2] = substrate: NC(=O)c1ccc[n+]([C@@H]2O[C@H](COP(=O)([O-])OP(=O)(O)OC[C@H]3O[C@@H](n4cnc5c(N)ncnc54)[C@H](O)[C@@H]3O)[C@@H](O)[C@H]2O)c1; details: other: coenzyme NADP or NAD; pH 8.9
Source text: The activity required to increase the absorbance of 1 micromol of NADPH at 340 nm per minute was defined to be one unit.

[3] = substrate: NC(=O)c1ccc[n+]([C@@H]2O[C@H](COP(=O)([O-])OP(=O)(O)OC[C@H]3O[C@@H](n4cnc5c(N)ncnc54)[C@H](OP(=O)(O)O)[C@@H]3O)[C@@H](O)[C@H]2O)c1; details: other: coenzyme NADP or NAD; pH 8.9

B1: heat-resistant glucose-6-phosphate dehydrogenase from Bacillus stearothermophilus UK 788 (FERM-P No. 5141) (Geobacillus stearothermophilus ATCC 12980) (protein)
chain: MDNMNPKSIIVIFGATGDLAKRKLFPSLYRLYEKGHLNEQFAVVGVARRPLSADEFRNYVRDSVETAFHQKLADGRFTSHFYYHPFDVTEAESYQRLKSLLEQLDGTYKTEGNRIFYLAMAPEFFGTVTSRLQSEGLTETHGFKRLVIEKPFGHDLASAEKLNDEIRRVFSEREIYRIDHYLGKEMVQNIKVIRFSNAIFEPLWNNRFIANIQITSSETLGVEDRGRYYDHSGALRDMVQNHMLQMVALLAMEPPIKLTTDDIRHEKVKVLRALRPIAHDEVDRYFVRGQYGRGVIHGKHVPAYREEPNVDPDSNTETFVAGKLLIDNFRWAGVPFYIRTGKRMAEKSTKIVVQFKDVPMNLYYRTNETIAPNLLVIHIQPDEGITLHLNGKKTGESTTITAPFQLDYCNNCIDGINTPEAYEKLLYDCMRGDATNFTHWDEVAASWQFVDPISEVWANTKASDFPNYAAGSMGPAAAGELLKKDGFHWWPIEHPRP
**Q.** Which Km [1] does the source give for B1 here?
**A.** 160 µM

**Q.** What about the Km [2] of the same protein?
**A.** 1640 µM

**Q.** What about the Km [3] of the same protein?
**A.** 16 µM
